Laboratory results: patent US20030091557A1 (Human Genome Sciences, published 2003)
Bridges are numbered along the chain shown (N, C = ends).

Molecular target: recombinant human ACE-2 (human, UniProt Q9BYF1 18-740, limits assumed)
Experiment: cell-based or functional assay

Sequence of recombinant human ACE-2 (Q9BYF1 18-740 limits assumed): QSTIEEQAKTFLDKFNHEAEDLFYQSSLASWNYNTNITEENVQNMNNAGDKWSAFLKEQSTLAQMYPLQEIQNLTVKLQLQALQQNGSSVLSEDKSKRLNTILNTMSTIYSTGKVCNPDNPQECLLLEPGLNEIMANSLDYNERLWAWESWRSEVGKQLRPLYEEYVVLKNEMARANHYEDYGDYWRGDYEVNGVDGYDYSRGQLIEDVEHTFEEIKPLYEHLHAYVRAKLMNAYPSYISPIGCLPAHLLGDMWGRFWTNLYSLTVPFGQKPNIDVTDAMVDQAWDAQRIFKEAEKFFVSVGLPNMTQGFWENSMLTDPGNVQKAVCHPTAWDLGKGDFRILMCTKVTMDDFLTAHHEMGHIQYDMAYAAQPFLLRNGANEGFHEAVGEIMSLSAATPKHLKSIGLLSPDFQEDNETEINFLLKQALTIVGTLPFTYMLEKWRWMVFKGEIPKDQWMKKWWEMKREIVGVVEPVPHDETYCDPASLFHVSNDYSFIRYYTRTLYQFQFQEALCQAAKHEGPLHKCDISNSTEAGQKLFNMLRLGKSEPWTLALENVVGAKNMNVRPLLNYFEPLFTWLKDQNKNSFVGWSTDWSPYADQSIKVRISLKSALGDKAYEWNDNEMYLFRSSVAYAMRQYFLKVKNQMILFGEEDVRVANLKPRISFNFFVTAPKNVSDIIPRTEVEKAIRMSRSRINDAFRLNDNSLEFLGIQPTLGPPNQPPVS

Binder | IC50 µM (ACE-2 cleavage of M-2195, fluorometric)
Ac-GDRLHCKPQRQSPWMKCQHLDPEGGG-NH2 (disulfide 6-17 (inferred)) [DX-512] | 0.06 µM
Ac-GDLHACRPVRGDPWWACTLGDPEGGG-NH2 (disulfide 6-17 (inferred); also: oxidized) [DX-513] | 0.09 µM
Ac-GSRIGCRDSRCNWWAPGEGGG-NH2 (disulfide 6-11 (inferred); also: oxidized) [DX-524] | 0.6 µM
Ac-GSRGFCRDSSCSFPAPGEGGG-NH2 (disulfide 6-11 (inferred); also: oxidized) [DX-525] | 1 µM
Ac-AGWEVCHWAPMMCKHGGTEGGG-NH2 (disulfide 6-13 (inferred); also: oxidized) [DX-529] | 0.4 µM
Ac-AGQKECKFGYPHCLPWGTEGGG-NH2 (disulfide 6-13 (inferred); also: oxidized) [DX-530] | 30 µM
Ac-AGSDWCGTWNNPCFHQGTEGGG-NH2 (disulfide 6-13 (inferred); also: oxidized) [DX-531] | 0.5 µM
Ac-GDRYLCLPQRDKPWKFCNWFDPEGGG-NH2 (disulfide 6-17 (inferred); also: oxidized) [DX-599] | 0.14 µM
Ac-GDGFTCSPIRMFPWFRCDLGDPEGGG-NH2 (disulfide 6-17 (inferred)) [DX-601] | 0.068 µM
Ac-GDFSPCKALRHSPWWVCPSGDPEGGG-NH2 (disulfide 6-17 (inferred)) [DX-602] | 0.12 µM
